T1: FcγRIIb, extracellular domain with C-terminal His tag (human, UniProt P31994 43-217)
T1 construct: extracellular domain; also called 2b; FcgRIIb; not shown: His tag at the C terminus
T1 sequence (looked up): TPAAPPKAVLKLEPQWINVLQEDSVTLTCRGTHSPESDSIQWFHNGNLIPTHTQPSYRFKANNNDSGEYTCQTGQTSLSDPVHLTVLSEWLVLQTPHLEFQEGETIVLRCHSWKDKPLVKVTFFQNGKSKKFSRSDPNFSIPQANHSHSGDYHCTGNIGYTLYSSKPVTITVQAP

T2: FcγRIIa R (FcγRIIa allotype with Arg at position 131), extracellular domain with C-terminal His tag (human, UniProt P12318 34-217)
T2 construct: extracellular domain; made in FreeStyle293 cells; analyte in the Biacore assay; also called FcγRIIa type R; 2aR
T2 sequence (looked up): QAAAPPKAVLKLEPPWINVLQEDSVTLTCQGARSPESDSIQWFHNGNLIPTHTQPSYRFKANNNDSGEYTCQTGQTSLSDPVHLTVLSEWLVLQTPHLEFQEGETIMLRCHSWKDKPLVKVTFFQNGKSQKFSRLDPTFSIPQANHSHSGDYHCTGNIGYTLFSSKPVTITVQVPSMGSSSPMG

T3: FcγRIIb, extracellular domain with C-terminal His tag (human, UniProt P31994 43-217)
T3 construct: extracellular domain; made in FreeStyle293 cells; analyte in the Biacore assay; also called 2b; FcgRIIb
T3 sequence (looked up): T1 sequence (looked up)

B1: GpH7-A5/GpH7-B3 variant S267_12R/GpL16-k0 (antibody, human IgG1, kappa)
heavy 1: not shown
heavy 2: not shown
light: DIVMTQSPLSLPVTPGEPASISCQASESLVHSNRNTYLHWYLQKPGQSPQLLIYKVSNRFSGVPDRFSGSGSGTDFTLKISRVEAEDVGVYYCSQNTHVPPTFGQGTKVEIERTVAAPSVFIFPPSDEQLKSGTASVVCLLNNFYPREAKVQWKVDNALQSGNSQESVTEQDSKDSTYSLSSTLTLSKADYEKHKVYACEVTHQGLSSPVTKSFNRGEC
notes: He Ab; alteration in one H chain only; also called He Ab
B2: GpH7-A5/GpH7-B3 variant S267_11K/GpL16-k0 (antibody, human IgG1, kappa)
heavy 1: not shown
heavy 2: not shown
light: B1 light
notes: as for B1
B3: GpH7-A5/GpH7-B3 variant Q295_10E/GpL16-k0 (antibody, human IgG1, kappa)
heavy 1: not shown
heavy 2: not shown
light: B1 light
notes: heterodimerized IgG1, mutation in one H chain only; also called He Ab
B4: GpH7-A5/GpH7-B3 variant S337_02A/GpL16-k0 (antibody, human IgG1, kappa)
heavy 1: not shown
heavy 2: not shown
light: B1 light
notes: as for B3
B5: GpH7-A5/GpH7-B3 variant Y296_13S/GpL16-k0 (antibody, human IgG1, kappa)
heavy 1: not shown
heavy 2: not shown
light: B1 light
notes: as for B3
B6: GpH7-A5/GpH7-B3 variant T335_02A/GpL16-k0 (antibody, human IgG1, kappa)
heavy 1: not shown
heavy 2: not shown
light: B1 light
notes: as for B3
B7: GpH7-A5/GpH7-B3 variant Y296_18N/GpL16-k0 (antibody, human IgG1, kappa)
heavy 1: not shown
heavy 2: not shown
light: B1 light
notes: as for B3
B8: GpH7-A5/GpH7-B3 variant T335_05P/GpL16-k0 (antibody, human IgG1, kappa)
heavy 1: not shown
heavy 2: not shown
light: B1 light
notes: as for B3
B9: GpH7-A5/GpH7-B3 variant S337_19Q/GpL16-k0 (antibody, human IgG1, kappa)
heavy 1: not shown
heavy 2: not shown
light: B1 light
notes: as for B3
B10: GpH7-A5/GpH7-B3 variant S337_04F/GpL16-k0 (antibody, human IgG1, kappa)
heavy 1: not shown
heavy 2: not shown
light: B1 light
notes: as for B3
B11: GpH7-A5/GpH7-B3 variant Y296_16H/GpL16-k0 (antibody, human IgG1, kappa)
heavy 1: not shown
heavy 2: not shown
light: B1 light
notes: as for B3
B12: GpH7-A5/GpH7-B3 variant Y296_19Q/GpL16-k0 (antibody, human IgG1, kappa)
heavy 1: not shown
heavy 2: not shown
light: B1 light
notes: as for B3
B13: GpH7-A5/GpH7-B3 variant S239_14T/GpL16-k0 (antibody, human IgG1, kappa)
heavy 1: not shown
heavy 2: not shown
light: B1 light
notes: as for B3
B14: GpH7-A5/GpH7-B3 variant T335_06M/GpL16-k0 (antibody, human IgG1, kappa)
heavy 1: not shown
heavy 2: not shown
light: B1 light
notes: as for B3
B15: GpH7-A5/GpH7-B3 variant Y296_14T/GpL16-k0 (antibody, human IgG1, kappa)
heavy 1: not shown
heavy 2: not shown
light: B1 light
notes: as for B3
B16: GpH7-A5/GpH7-B3 variant Y300_18N/GpL16-k0 (antibody, human IgG1, kappa)
heavy 1: not shown
heavy 2: not shown
light: B1 light
notes: as for B3
B17: GpH7-A5/GpH7-B3 variant S337_12R/GpL16-k0 (antibody, human IgG1, kappa)
heavy 1: not shown
heavy 2: not shown
light: B1 light
notes: as for B3
B18: GpH7-A5/GpH7-B3 variant Y296_09D/GpL16-k0 (antibody, human IgG1, kappa)
heavy 1: not shown
heavy 2: not shown
light: B1 light
notes: as for B3

The first experiment concerns the target T1, FcγRIIb, extracellular domain with …. Description: SPR (Biacore), relative binding, GpH7-A5/GpH7-B3/GpL16-k0 = 100. For orientation: Surface plasmon resonance follows binding to a sensor surface in real time, without labels.
As for B1, the He/Con_2b is 11.3 % of control.

Regarding B2, the He/Con_2b was 12.2 % of control.

A further experiment concerns the target T2, FcγRIIa R (FcγRIIa allotype with Arg at …). As to the kind of experiment: SPR (Biacore), antibody captured, FcγR analyte; vs GpH7-A5/GpH7-B3/GpL16-k0 = 100. The procedure:
(§1) The heterodimerized antibodies He Abs in which one of the H chains was introduced with an alteration were assayed for their binding activities to each activating FcγR and inhibitory FcγR according to the method described in Example 4. […] The activating FcγRs in FIGS. 26, 27, 28, and 29 are FcγRIa, FcγRIIa (R), FcγRIIa (H), and FcγRIIIa, respectively.
(§2) Analysis of interaction between objective antibody and the FcγR was carried out using Biacore T100 (GE Healthcare). HBS-EP+ (GE Healthcare) was used as the running buffer, and the measurement temperature was set to 25° C. Chips produced by immobilizing the antigen peptide by the amine coupling method to a Series S Sencor Chip CM5 (GE Healthcare), or alternatively, chips produced by allowing preliminarily biotinylated antigen peptides to interact with and immobilize onto a Series S Sensor Chip SA (certified) (GE Healthcare) were used. Antibodies of interest were captured onto an antigen peptide-immobilized chip, and allowed to interact to each FcγR diluted with running buffer. To regenerate and repeatedly use the chip, the antibodies captured on the chip were washed off by reacting 10 mM glycine-HCl, pH 1.5.
For the molecule B3, the He/Con_2aR is 102 relative (HeCon Ab = 100). The same measure, in the same setting: with B4 the figure was 105 relative (HeCon Ab = 100); with B5, 102 relative (HeCon Ab = 100); with B6, 102 relative (HeCon Ab = 100). B7: the He/Con_2aR was 104 relative (HeCon Ab = 100). With B8, the He/Con_2aR was 104 relative (HeCon Ab = 100). As for B9, the He/Con_2aR is 106 relative (HeCon Ab = 100). Consider B10, for which the He/Con_2aR was 105 relative (HeCon Ab = 100). As to B11, the He/Con_2aR was 105 relative (HeCon Ab = 100). As to B12, the He/Con_2aR was 102 relative (HeCon Ab = 100). Same read-out and setting: with B13 the figure was 103 relative (HeCon Ab = 100); with B14, 105 relative (HeCon Ab = 100). With B15, the He/Con_2aR is 103 relative (HeCon Ab = 100). As to B16, the He/Con_2aR is 100 relative (HeCon Ab = 100).

B17: the He/Con_2aR was 107 relative (HeCon Ab = 100). For B18, the He/Con_2aR is 106 relative (HeCon Ab = 100).

The next experiment concerns the target T3, FcγRIIb, extracellular domain with …. Described as above. The procedure:
as §1, §2
For the molecule B3, the He/Con_2b was 94.8 relative (HeCon Ab = 100).

B4: the He/Con_2b was 97.2 relative (HeCon Ab = 100). Same read-out and setting: the same measure for B5: 86.3 relative (HeCon Ab = 100); for B6: 94 relative (HeCon Ab = 100).

Consider B7, for which the He/Con_2b was 91.5 relative (HeCon Ab = 100). As to B8, the He/Con_2b was 99.9 relative (HeCon Ab = 100). Turning to B9, the He/Con_2b was 99.7 relative (HeCon Ab = 100). With B10, the He/Con_2b was 97.8 relative (HeCon Ab = 100). Regarding B11, the He/Con_2b is 92.2 relative (HeCon Ab = 100). Same read-out and setting: with B12 the figure was 89.3 relative (HeCon Ab = 100). Still for that read-out and setting: the same measure for B13: 97.3 relative (HeCon Ab = 100); for B14: 99.4 relative (HeCon Ab = 100). With B15, the He/Con_2b is 88.2 relative (HeCon Ab = 100). As for B16, the He/Con_2b is 82.7 relative (HeCon Ab = 100).

On to B17, for which the He/Con_2b is 99.5 relative (HeCon Ab = 100). Take B18: the He/Con_2b is 98.9 relative (HeCon Ab = 100).

The values are drawn from patent US20150344570A1 (published 2015).
